The DeepSol protein solubility set

Experiment: soluble on expression in E. coli; label from the status in PepcDB or PDB records

Sequence | soluble on expression in E. coli
MGRYSVKRYKTKRRTRDLDLIYNDLSTKESVQKLLNQPLDETKPGLGQHYCIHCAKYMETAIALKTHLKGKVHKRRVKELRGVPYTQEVSDAAAGYNLNKFLNRVQEITQSVGPEKESNEALLKEHLDSTLANVKTTEPTLPWAAADAEANTAAVTEAESTASAST | soluble
MSLTAERQERLLARVEDAFGVISVYEVDDYRFLEFGDAIEQSCVFTADPSWLEYDYTRAMLVGALCHESPESALFLGLGAGTLTQACMKFLPLEDIEAIELRPDVPRLAMDYLGLDDDPRLYVRIGDALELLPTAEKADLLFVDLYTDHGPGVGHLAWNFLENCQQHLNPGGWLVINQWATDDGRPLGAALLRGLYHRHYWELPVKEGNVILLVPADLEQSLDLDGLRARAEALAPRLGYSLDGLIREIRPATEGHHHHHH | soluble
MAHHHHHHMQKLRADWTKHFDSEKASMTAFRDYDFERRVNDMRRLQNAVDHFDHAVRQGMMAMKEIASAYEAVGQAFTELTLTNNNPVPGPGEAEEPNPYPTEADVQYMSQPNAGAAAADYAASVASTRMPDEANSQVRRLAKTFAEEARRINEGPPFQSYNAGIHRDVHNRLLPVLEHLKSINEYRHKHIEALERYNKYKAEVEKVEKHYTKKGKPFCDSKGHKKYTEKRDEAWKEYITRRDKFNKTFGMLMEVNDHAAAQIIHRYLVLNHEYLQQLVASMDRVLPAMAEVYPLNNEYNSLQNTLILEAVANAKTPFADHSKIRSKQADSDKSDGAGDERHEDVQEAMDAHYEAQQSTLTSMSSDGGSNLASGSRLEDSVSYDAHVNPSTALESMEQPPDPEQDDV | soluble
SDAILNYRPEGSEDYYALLGCDELSSVEQILAEFKIRALECHPDKHPENSKAVETFQKLQKAKEILCNAESRARYDHWRRSQMSMPFEQWEALADSVKTSMHWAVRSKKDLMLEGSGQTFTSSVPNKERSEQRETKKGDPDSNPEKMKQKEPKFPEEGISPQNPDSPGLSDLNCGHLRFRWSGDAPSELLRKFRNYEI | soluble
MGSDKIHHHHHHMKIDRLISIIIVLLRRERVQAKELAEMFGVSVRTILRDVDTINLGGIPIITYQGVNGGISIAEGYRLDKSVLSAGDMATLISTLKGVAASIPDSRFDILAEKLKNPLSTSQLELLDLKSRQMIIDLSPWGTNEQLKGKITLLRQAIENYREIEFAYIDAAGTRSIRQVEPYALLLKGQSWYLFAWCLLRQDFRLFKLIRIKNLQLVNITYQPREVPMEQDYFENQWQETARPVELDLLFDKEMENVVEECFGGDIMRQDDGRIMVKVCLPENNWLYGYLLSFGGGMEVVNPPHIRSILAAIAEKIYKTYSS | not soluble
MVLKGDAKRIVAMSSTHIAMLDAIGEVRCITGVSGIDYISNPDIQARRDSIGDVGYEGNINYELLLSLDPDLVLLYGVNGASAMESKLEELDIPFMYVGDYLEESPLGKAEWMVVLSEVTGKREKGEKAFAAIPVRYNALKKKVADSTLGLEHHHHHH | not soluble
MGSDKIHHHHHHMLYQLHEFNRSLLNPLMHWAEASSRLFTDPASPLAYTPYAQRIAAGYELLYRLGKQYEKPNFNIESVLVNGKTVAIVEEETEKKSFCTLIHFRKKLSAKEFAALKQPVVLLVAPLSGHHSTLLRDTVRSLLQDHDVYITDWTDARMVPLAEGPFHLHDYVYYIQDFIRRLGPDLHVISVCQPTVPVLAAISLMASERDPRLPKTMTMMGGPIDARKSPTQVNDLAVEKPHAWFENQVIYSVPPSYPGFGRKVYPGFLQHAGFIAMNPGRHAQSHWDFYMHLREGDNESAEEHRKFYDEYNAVLDMPAEYYLETIKTVFQEHRLPLGTWEIEGKLVRPQDIKSVALFTIEGEKDDISGAGQTHAAQDLCSALPQSDKQQFTAPQCGHYGIFSGRKWREIIAPKIGEFITRYS | not soluble
MYCQRLRQLRKAHKLTMEQLAEKIGIAKSSYGGYEAESKKPPLDKLVILARLYDVSVDYILGLTDDPDPKVERKNLKEFLEKPDIHWDGYKLTPEILDPIRKILKLVTANNN | not soluble
GPGSMSINFSAPYLVTEMEEKVVTSLPSGDTASGSGESTASPPIVISAAVPYTEEEKKLLTEQLRRHQRQQSQGDDDSSWNETTLPFISSMVEKVLQLAAQNRESDSTKDSGSGDENKPQEKANATDDVAGADAVSKVDTFVEDNDYVLEQLRLQPWPFFTLPRLCEILADPYKYNSIGDKLRGEKLQSAIRRCVLVSAPLNCDVRNNSS | not soluble
MSLDASDDSLIGRITEVRAGRFAARLLSDEEGFRNEVSLGDEVQHPGQVGTYVSIRNGTFRILALVREVSGGAAGSAAGSAMQLVPLGEFNDKGAFSRGVRRYPVPGAEVHAASPQEINAVFARTRNLRFNPGYLPNHPATGVYLDPSALCSRHFAILGQSGAGKSWTVASLLQRMLASAPRAHIILLDLHGEYCWRGADGVLHSTFPPMATRAMDARELEIPYWLMSFAELVDLLIERDDPAASIQTAFLRETVFELKRRSARELGLEGVSIDAPVYFSLQEVYERFKEANEHRTDFGKTKGPLFGQFDDFLLKLGSRLHDVRYDFLLNPARRTRSESLPDLLRDFVGLGEPRCQISVIDLSPVPFDVRPTVSAQIGRLAFEFNYWNLDRREFPILLVCEEAHTYIPRERATQYEGTRKSMERIAKEGRKYGVGLAVVSQRPHELSETVLSQCGSYICLRISNPDDQAYVRKLVPEGEADLVDVLTALGRGEALILGEATPLPVRCQIFRPDEGHHHHHH | not soluble
MGHHHHHHSHMFVYLNPNPKNTLRIDAEALTETRRLAARAWDLKYQMTKQGMHQRMLRAELDNLEILERGHSAALTTNLSLLANVLLDQPAPPDPTQGEEKGLPPSSRVESRTEGVYTVTVYPGDPAFEIQDSLPQKIWPMLYLHQQRWLPSYGPWHIRFTSSAMQLRNFPRSLRGQANFQNSMSLKLITALTDVISRISLDFYSDLRHLSDTMSALCLIAAYYSEKNQTPLPTNLPELLGNITAKVTLLVRDLKRAAANKGFNFNRNSSSLLPAQGGLYSNDFFQEHALYSLFRTAGMLASSSSPEYPRADSVLAITAAVFGDNIPPFAAYQWNLRSGLKALESLILLFLLLDVNVPATSNKRLHLEALLGESYSKGSRPPARRTGPLDAGGSVFSFLMENYLVPTLLHRPTTNMSALFPGLYLLQLEFSSGASTPHAIHLTDVKFRDIFNILVQSNVFQDSQELIRAKQSLRVSCETGSGNLLESLSPGTTMRDIIRKEFMAQDVYDYVYFCVLGALPVTVAVV | not soluble
MSVIKLKSKLKYCHYAYDDEGYVIHMLTSNERTFFTNAYIIETKNSIVVVDTLMVNSDAILLRQYMDNINKPLIAVIITHGHPDHYNGTEIITGFKEVPIISTKGIRDCIQDTVDSKEVKWKPYFGQDWPEHKILPNQLVIDSEVVNLDGLDYSFRDLGAAESSSDLFFTLGEKRSVIFVGDVVFNNMHGFMNDGNSAQWLKVLQKLLTEIADVKLLFTGHGDPGDTHQLVQRQIDYISHYRSNLLAIIRGNQLEHHHHHH | not soluble
EDPGGITRTKGERVDATVDGLPDGVSPEDAAKFTSVLNKLIKDDPELKKSVEVKTLKAASKTKRTKEVVNWRGGGGFQVAHLSPACFDYDPALDRVMLTAAATGETLIESVAANLGFTLLHPDDDYVFDARRGNALLKVVEGVATPQIVDWLASQIQPGETIVLAATTVMDGVRQHLRKAVKGSRVVALPDDIFRYSEGGNK | not soluble
MQRNLSHIISQATSAPLLLEPAYARVFFCALGRESGINSLHIPGNNESLDQSDMALVTGDFMATGKPQARFYQVVNGIAVLPVTGTLVHKLGGMRPFSGMTGYDGVTARLQQAVSDPEVKGILLDIDSPGGQAAGAFDCADMIYRMREQKPVWALANETACSAAMLLAAACSHRLVTQTSRMGSIGVVMAHTSYAEKLKQEGIDITLIYSGAHKADLTPSQKLPESVYADYQQRMDEARKMFAEKVARYTGLSVDAVMATEAAVYDGQAIITTGLADGMVNAADAIGVMAEAINSNKTGGTMPELSAADAVTQENQRVMGILGCPEARGHEALAQMLAGQPGMSVAQAKSILAAAAPADTTSTADRILALEEAGGRETLAQTLAAMPEMTVEQARTILAASPIAAATSLHDAVMALDEAKGREELAEKLAVMPGMTTDQARDLLAAAPDKSGNAGLSMNNAFDAFMQSHSPGPISGGKGHSNDTETTLLMSIPGTSATLEHHHHHH | not soluble
MTHPLYIFDLDETLINGDCAMIWNEFLVDKGIVTTPDFLEEDKRLMTLYSRGLMDMEDYLIFAMSPLKNIPTDQVEILIEECVNERILPLLFPEAKILIHQLKADNVDMIVISASVSFLVKIVAKNIGIKHAIGIDLKEKNGCYTRHILGVPSYREGKVSRLTEWLNGGDKTYSALHFYTDSINDLPLCLYADHTYLVNPCEQLAVYSKKKNWPILAWGSQ | not soluble
MAHHHHHHMGDAENNENDKKCLWVPDEEVTNCYSCNAFFNVRVRKHHCRACGNVFCSNCSDNKIKISEYSYAEKVRVCDRCFMERSSPQTLLLQEDLGARKQINQDLKKALSEKMAIVERFKTFLLEFDSEILNNSDHADGSNDVMSLLKRGEKGLKDLNDKIRNYDSIIENQKKELEHLKREKEQKTELNKILHLRNHEIQQKNMNIKNLVKEKNELTLVKEESEGIIHSYKKQVEKLIIRCNQLELEKKRKNYTDQSSNYSFTNSSSQSYMMNSYRLPQNEMSVSYTVAQGPSDDPEEENCCNYCQRRVCSIM | not soluble
MSSSSSSEDELEKKVTKEQKKKETKSKKRQSEAVEEEKQEVKKAKNEEEVSGRLKDSDGNEMFEIGNLRYATVSKFKGKEYVNIREYYIDRDSQKMMPSRKGISLSKAQWANLKDLIPEIDKKF | soluble
MFISCIILINYSYIFGKNIRYLYEFKVIWKSNNSLILFFIEFDRNFMTIKFKLFKCRRLNILIELINIENYFRNGNILCFIFNIPSIPRNLLINVFLTSSNKVNISIQGLKLEHHHHHH | not soluble
SYSVGQVAGFAGVTVRTLHHYDDIGLLVPSERSHAGHRRYSDADLDRLQQILFYRELGFPLDEVAALLDDPAADPRAHLRRQHELLSARIGKLQKMAAAVEQAMEARS | soluble
MTPTPLHSITPFSMLDFPSMLSCILWFSGCNLACSYCYNPEFLKESGKIDLEGLLSFLRSRVGLLEGVVFSGGEATLFAGLPLWMEEVRSLGFKIKLDTNGTNPAMLKELLQKGYLDYVAMDFKGKEERFGMITGREFYGRFLESLEILLSSSIPFEIRTTVHSYLLQEEDIAEMAALLKERG | not soluble
MSLSGFDADAIDRTTAADLAEVGSDKWTRYPGCIGAFIAEMDYGLAPCIQQAIDSACDHCKLGYIPEPWKRRVAEACAGWQKSHYGWDVDPDIIRVVPDVLEAYEIFLRELVGAGNAVVVPTPAYMPFLSVPKLYDVDVIEIEMLQGTDETTGEREWLFDFNAIERAFAAGCHAFVLCNPHNPIGKVLTLAEEQRLCELAERYDVRIFNDEIHAPFVFEGRHIPYPTISKAAARQSMTATSASKSFNIPGTKCAQVLLTNPADREMWAERAEWSEHQTATIGAIATTTAYNEGDPWFQDALSYVRRNLGLFDKQMRTRFSGVGYIRPRGTYIAWLDFGPLGIDDPAAYFLEKAKVALTDGRSCGRAGAGCVRVNMAMPYPLLVDCLNRMHDALQADGEGHHHHHH | soluble
MSMVETAPSKIQVRDLNFYYGKFHALKNINLDIAKNQVTAFIGPSGCGKSTLLRTFNKMYSLYPEQRAEGEILLDGDNILTNTQDIALLRAKVGMVFQKPTPFPMSIYDNIAFGVRLFEKLSRADMDERVQWALTKAALWNETKDKLHQSGYSLSGGQQQRLCIARGIAIRPEVLLLDEPCSALDPISTGRIEELITELKQDYTVVIVTHNMQQAARCSDHTAFMYLGELIEFSNTDDLFTKPAKKQTEDYITGRYG | not soluble
